# According to patent publication US20200102402A1 (ZYMEDI, published 2020):
# B1: N5 scFv (scFv)
# scFv: EVQLLESGGGLVQPGGSLRLSCAASGFTFSDYAMSWVRQAPGKGLEWVSWIYSGSGNKYYADSVKGRFTISRDNSKNTLYLQMNSLRAEDTAVYYCARMGLDFDYWGQGTLVTVSSGGGGSGGGGSGGGGSQSVLTQPPSASGTPGQRVTISCTGSSSNIGNNYVSWYQQLPGTAPKLLIYDDNQRPSGVPDRFSGSKSGTSASLAISGLRSEDEADYYCGTWDDSLSAYVFGGGTKLTVL
# notes: HA-tagged scFv purified on Ni-NTA; also called scFv N5 clone
# B2: N5 IgG (antibody, V domains shown)
# VH: EVQLLESGGGLVQPGGSLRLSCAASGFTFSDYAMSWVRQAPGKGLEWVSWIYSGSGNKYYADSVKGRFTISRDNSKNTLYLQMNSLRAEDTAVYYCARMGLDFDYWGQGTLVTVSS
# VL: QSVLTQPPSASGTPGQRVTISCTGSSSNIGNNYVSWYQQLPGTAPKLLIYDDNQRPSGVPDRFSGSKSGTSASLAISGLRSEDEADYYCGTWDDSLSAYVFGGGTKLTVL
# notes: IgG made from the scFv variable regions
# What was measured:
# [1] = biological target: T1, human lysyl-tRNA synthetase (KRS), full-length (human, UniProt Q15046 1-597); test: Western blot on lysate of A549 cells transformed with full-length KRS (F), probed with the scFv
# T1 construct: also called native KRS; full-length KRS
# [2] = biological target: T2, KRS fragment with deletion of amino acids at positions 1-71 in the N-terminus (human, UniProt Q15046 72-597); test: western blotting of lysate of transformed A549 cells
# T2 construct: also called fragment 1; denoted by 1
# Experimental: As described above, the scFv antibodies extracted from the periplasm were used to investigate using western blotting whether the scFv antibodies bound to the full-length KRS or respective KRS N-terminal fragments. Then, 30 μg of HCT116 cell lysate was electrophoresed through SDS PAGE, transferred onto PVDF membrane, and then blocked with 3% skim milk. Thereafter, the extracted scFv antibodies were added at 1.0 μg/μl, followed by incubation for 1 h. The unbound scFv antibodies were washed out, and for detection, the scFv binding with antigens were incubated with anti-HA secondary antibodies linked with horseradish peroxidase (HRP), and film sensitization was carried out using ECL reagent as a substrate in a dark room. The sensitized bands were compared with standard molecule markers to identify bands corresponding to sizes of the full-length KRS and the respective fragments.
# [3] = biological target: T3, KRS fragment composed of amino acid residues 1-200 in the N-terminus (human, UniProt Q15046 1-200); test: Western blot on lysate of A549 cells transformed with the KRS fragment 1-200 (2), probed with the scFv
# T3 construct: also called fragment 2; denoted by 2
# [4] = biological target: T4, myc-KRS T52D (active mutant) (human, UniProt Q15046 2-597); test: Immunofluorescence on A549 cells transfected with Myc tagged KRS-T52D, fixed with paraformaldehyde
# T4 construct: Active mutant whose N-terminal region is exposed on the cell membrane; also called KRS-T52D mutant; T52D-KRS
# Experimental: After incubation for 24 h, the cells were incubated using serum-free media (RPMI 1640 media) at 37° C. for 1 h. Thereafter, the cells were treated with 10 μg/ml laminin (L2020; Sigma) and then incubated at 37° C. for 1 h.
# The prepared samples were washed with PBS (4° C.), fixed by the treatment with 4% paraformaldehyde for 10 min, and then washed. The samples were blocked with CAS block for 10 min, and treated with the scFv and Myc antibodies for 2 h. Thereafter, the unbound antibodies were washed out, and incubated with secondary antibodies for 1 h in a dark room. DAPI staining was performed for 10 min before mounting.
# KRS 1-207 aa = biological target: T5, KRS 1-207 aa (human, UniProt Q15046 1-207); test: SPR Biacore 2000, KRS 1-207 immobilised on CM5, antibody 6.25-100 nM as analyte
# T5 construct: also called KRS N-terminal region (SPR antigen)
# Experimental: After KRS was immobilized on a sensor chip (CM5, GE healthcare, US), antibody proteins (6.25-100 nM), which were serially diluted with HES buffer solution (10 mM HEPES, pH 7.4, 150 mM NaCl, 3 mM EDTA, 0.005% surfactant P20), were allowed to flow at a rate of 30 μl/min for 3 min, and 1 M NaCl/20 mM NaOH was allowed to flow at a rate of 30 μl/min for 3 min, thereby inducing the dissociation of proteins bound to the antigen. Mock IgG was used as control. Specific experiment conditions are as follows:
# The affinity was obtained from the kinetic rate constants (ka and kd) and equilibrium dissociation constants (KD) by using BIA evaluation ver. 3.2 software.
# T5 sequence (Q15046 1-207): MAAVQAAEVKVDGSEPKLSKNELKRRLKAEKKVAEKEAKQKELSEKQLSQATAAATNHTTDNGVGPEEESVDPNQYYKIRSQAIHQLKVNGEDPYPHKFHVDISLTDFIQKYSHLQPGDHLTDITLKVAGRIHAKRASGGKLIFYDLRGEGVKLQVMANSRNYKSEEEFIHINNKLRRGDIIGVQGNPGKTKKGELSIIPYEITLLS
# T1 sequence (Q15046 whole entry): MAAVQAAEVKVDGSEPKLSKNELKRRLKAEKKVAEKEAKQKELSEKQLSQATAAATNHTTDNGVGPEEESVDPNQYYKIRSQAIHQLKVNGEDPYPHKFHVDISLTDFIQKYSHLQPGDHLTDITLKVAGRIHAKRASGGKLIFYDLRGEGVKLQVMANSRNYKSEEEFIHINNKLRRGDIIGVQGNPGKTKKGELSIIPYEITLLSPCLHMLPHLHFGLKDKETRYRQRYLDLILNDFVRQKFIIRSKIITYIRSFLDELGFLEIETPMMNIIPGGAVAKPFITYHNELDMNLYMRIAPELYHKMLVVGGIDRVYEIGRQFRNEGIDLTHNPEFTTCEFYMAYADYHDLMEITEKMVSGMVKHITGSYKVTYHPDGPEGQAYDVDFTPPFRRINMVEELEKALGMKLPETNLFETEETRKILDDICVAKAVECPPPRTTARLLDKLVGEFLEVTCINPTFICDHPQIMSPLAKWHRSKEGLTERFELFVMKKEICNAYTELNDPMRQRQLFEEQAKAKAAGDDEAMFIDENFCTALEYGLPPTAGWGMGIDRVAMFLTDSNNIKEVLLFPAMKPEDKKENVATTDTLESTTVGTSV
# T2 sequence (Q15046 72-597, stated change not applied): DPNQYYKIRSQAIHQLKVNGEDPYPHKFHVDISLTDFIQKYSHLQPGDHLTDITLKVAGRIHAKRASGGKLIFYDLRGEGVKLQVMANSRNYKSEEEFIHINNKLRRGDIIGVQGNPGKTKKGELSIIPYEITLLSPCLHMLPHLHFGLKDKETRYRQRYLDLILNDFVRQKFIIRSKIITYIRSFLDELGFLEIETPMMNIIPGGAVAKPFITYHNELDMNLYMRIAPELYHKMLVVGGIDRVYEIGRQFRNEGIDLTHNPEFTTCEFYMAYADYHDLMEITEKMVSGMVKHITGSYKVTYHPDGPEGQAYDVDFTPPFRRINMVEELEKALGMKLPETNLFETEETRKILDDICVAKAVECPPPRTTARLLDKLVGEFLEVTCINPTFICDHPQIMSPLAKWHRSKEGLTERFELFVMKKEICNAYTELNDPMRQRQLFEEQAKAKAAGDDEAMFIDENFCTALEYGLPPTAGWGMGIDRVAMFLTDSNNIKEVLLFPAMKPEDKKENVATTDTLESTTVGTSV
# T4 sequence (Q15046 2-597 T52D): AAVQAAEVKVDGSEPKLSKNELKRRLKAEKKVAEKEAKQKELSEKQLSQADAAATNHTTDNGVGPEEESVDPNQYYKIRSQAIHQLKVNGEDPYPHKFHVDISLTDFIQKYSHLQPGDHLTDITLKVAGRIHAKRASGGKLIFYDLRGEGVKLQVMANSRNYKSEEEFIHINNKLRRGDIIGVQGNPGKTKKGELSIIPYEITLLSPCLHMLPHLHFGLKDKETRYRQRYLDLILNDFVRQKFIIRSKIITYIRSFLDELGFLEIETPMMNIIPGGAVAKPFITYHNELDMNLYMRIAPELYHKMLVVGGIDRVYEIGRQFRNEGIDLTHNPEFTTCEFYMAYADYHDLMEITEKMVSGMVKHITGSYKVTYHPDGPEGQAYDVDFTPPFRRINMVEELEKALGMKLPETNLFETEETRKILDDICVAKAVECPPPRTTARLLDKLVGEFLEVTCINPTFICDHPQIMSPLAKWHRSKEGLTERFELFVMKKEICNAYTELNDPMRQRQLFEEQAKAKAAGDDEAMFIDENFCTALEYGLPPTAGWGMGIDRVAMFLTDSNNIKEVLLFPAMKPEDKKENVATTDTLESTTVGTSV
# T3 sequence (Q15046 1-200): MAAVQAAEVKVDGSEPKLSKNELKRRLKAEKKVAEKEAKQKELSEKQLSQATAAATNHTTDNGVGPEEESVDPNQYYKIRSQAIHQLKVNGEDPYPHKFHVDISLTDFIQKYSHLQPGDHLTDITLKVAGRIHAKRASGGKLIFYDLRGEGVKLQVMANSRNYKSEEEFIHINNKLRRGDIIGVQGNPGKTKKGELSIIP
Binder,binding result [1],binding result [2],binding result [3],binding result [4],Kd (KRS 1-207 aa),koff (KRS 1-207 aa),kon (KRS 1-207 aa)
B1,binds,no binding,binds,binds,,,
B2,,,,,1.05 nM,0.00328 s⁻¹,3.13e+06 M⁻¹ s⁻¹
